Reference: publication PMC2801813 (Biochemistry, 2009)
Several values for one entry are separate records, joined by “and”; a condition that tells them apart may be missing. Equal entries are not always repeated.

Legend:
[1] = substrate: O=C(O)C(=O)O; assay: purified protein; conditions: buffer and temperature same
[2] = target: the molecule itself; assay: SEC

B1: OxDC (oxalate decarboxylase) (Bacillus subtilis subsp. subtilis str. 168; E101Q/E280Q) (protein)
chain: MKKQNDIPQPIRGDKGATVKIPRNIERDRQNPDMLVPPETDHGTVSNMKFSFSDTHNRLEKGGYAREVTVRELPISENLASVNMRLKPGAIRELHWHKEAQWAYMIYGSARVTIVDEKGRSFIDDVGEGDLWYFPSGLPHSIQALEEGAEFLLVFDDGSFSENSTFQLTDWLAHTPKEVIAANFGVTKEEISNLPGKEKYIFENQLPGSLKDDIVEGPNGEVPYPFTYRLLEQEPIESEGGKVYIADSTNFKVSKTIASALVTVEPGAMRELHWHPNTHQWQYYISGKARMTVFASDGHARTFNYQAGDVGYVPFAMGHYVENIGDEPLVFLEIFKDDHYADVSLNQWLAMLPETFVQAHLDLGKDFTDVLSKEKHPVVKKKCSK
For B1, the Km ([1]; 0.07 Mn/monomer) was 2.9 ± 0.3 mM, the kcat ([1]; 0.07 Mn/monomer) was 0.012 ± 0.0003 s⁻¹ and the kcat/Km ([1]; 0.07 Mn/monomer) was 4 M⁻¹ s⁻¹.

B2: OxDC (oxalate decarboxylase) (Bacillus subtilis subsp. subtilis str. 168; E101D) (protein)
chain: MKKQNDIPQPIRGDKGATVKIPRNIERDRQNPDMLVPPETDHGTVSNMKFSFSDTHNRLEKGGYAREVTVRELPISENLASVNMRLKPGAIRELHWHKEADWAYMIYGSARVTIVDEKGRSFIDDVGEGDLWYFPSGLPHSIQALEEGAEFLLVFDDGSFSENSTFQLTDWLAHTPKEVIAANFGVTKEEISNLPGKEKYIFENQLPGSLKDDIVEGPNGEVPYPFTYRLLEQEPIESEGGKVYIADSTNFKVSKTIASALVTVEPGAMRELHWHPNTHEWQYYISGKARMTVFASDGHARTFNYQAGDVGYVPFAMGHYVENIGDEPLVFLEIFKDDHYADVSLNQWLAMLPETFVQAHLDLGKDFTDVLSKEKHPVVKKKCSK
Work on B2 yielded a Km ([1]; 0.09 Mn/monomer) of 3.4 ± 0.1 mM, a kcat ([1]; 0.09 Mn/monomer) of 0.49 ± 0.01 s⁻¹ and a kcat/Km ([1]; 0.09 Mn/monomer) of 144 M⁻¹ s⁻¹.

B3: OxDC (oxalate decarboxylase) (Bacillus subtilis subsp. subtilis str. 168; E101Q) (protein)
chain: MKKQNDIPQPIRGDKGATVKIPRNIERDRQNPDMLVPPETDHGTVSNMKFSFSDTHNRLEKGGYAREVTVRELPISENLASVNMRLKPGAIRELHWHKEAQWAYMIYGSARVTIVDEKGRSFIDDVGEGDLWYFPSGLPHSIQALEEGAEFLLVFDDGSFSENSTFQLTDWLAHTPKEVIAANFGVTKEEISNLPGKEKYIFENQLPGSLKDDIVEGPNGEVPYPFTYRLLEQEPIESEGGKVYIADSTNFKVSKTIASALVTVEPGAMRELHWHPNTHEWQYYISGKARMTVFASDGHARTFNYQAGDVGYVPFAMGHYVENIGDEPLVFLEIFKDDHYADVSLNQWLAMLPETFVQAHLDLGKDFTDVLSKEKHPVVKKKCSK
For B3, the Km ([1]; 0.11 Mn/monomer) was 4.0 ± 0.2 mM, the kcat ([1]; 0.11 Mn/monomer) was 0.62 ± 0.01 s⁻¹ and the kcat/Km ([1]; 0.11 Mn/monomer) was 155 M⁻¹ s⁻¹.

B4: OxDC (oxalate decarboxylase) (Bacillus subtilis subsp. subtilis str. 168; E280D) (protein)
chain: MKKQNDIPQPIRGDKGATVKIPRNIERDRQNPDMLVPPETDHGTVSNMKFSFSDTHNRLEKGGYAREVTVRELPISENLASVNMRLKPGAIRELHWHKEAEWAYMIYGSARVTIVDEKGRSFIDDVGEGDLWYFPSGLPHSIQALEEGAEFLLVFDDGSFSENSTFQLTDWLAHTPKEVIAANFGVTKEEISNLPGKEKYIFENQLPGSLKDDIVEGPNGEVPYPFTYRLLEQEPIESEGGKVYIADSTNFKVSKTIASALVTVEPGAMRELHWHPNTHDWQYYISGKARMTVFASDGHARTFNYQAGDVGYVPFAMGHYVENIGDEPLVFLEIFKDDHYADVSLNQWLAMLPETFVQAHLDLGKDFTDVLSKEKHPVVKKKCSK
Work on B4 yielded a Km ([1]; 0.64 Mn/monomer) of 5.4 ± 0.4 mM, a kcat ([1]; 0.64 Mn/monomer) of 0.14 ± 0.01 s⁻¹ and a kcat/Km ([1]; 0.64 Mn/monomer) of 26 M⁻¹ s⁻¹.

B5: recombinant, wild-type Bacillus subtilis oxalate decarboxylase (enzyme, UniProt O34714 1-385, looked up)
chain: MKKQNDIPQPIRGDKGATVKIPRNIERDRQNPDMLVPPETDHGTVSNMKFSFSDTHNRLEKGGYAREVTVRELPISENLASVNMRLKPGAIRELHWHKEAEWAYMIYGSARVTIVDEKGRSFIDDVGEGDLWYFPSGLPHSIQALEEGAEFLLVFDDGSFSENSTFQLTDWLAHTPKEVIAANFGVTKEEISNLPGKEKYIFENQLPGSLKDDIVEGPNGEVPYPFTYRLLEQEPIESEGGKVYIADSTNFKVSKTIASALVTVEPGAMRELHWHPNTHEWQYYISGKARMTVFASDGHARTFNYQAGDVGYVPFAMGHYVENIGDEPLVFLEIFKDDHYADVSLNQWLAMLPETFVQAHLDLGKDFTDVLSKEKHPVVKKKCSK
For B5, the “stoichiometry N” value [2] was 6 and 12 monomers to 18 monomers (2×).

B6: OxDC (oxalate decarboxylase) (Bacillus subtilis subsp. subtilis str. 168; E280Q) (protein)
chain: MKKQNDIPQPIRGDKGATVKIPRNIERDRQNPDMLVPPETDHGTVSNMKFSFSDTHNRLEKGGYAREVTVRELPISENLASVNMRLKPGAIRELHWHKEAEWAYMIYGSARVTIVDEKGRSFIDDVGEGDLWYFPSGLPHSIQALEEGAEFLLVFDDGSFSENSTFQLTDWLAHTPKEVIAANFGVTKEEISNLPGKEKYIFENQLPGSLKDDIVEGPNGEVPYPFTYRLLEQEPIESEGGKVYIADSTNFKVSKTIASALVTVEPGAMRELHWHPNTHQWQYYISGKARMTVFASDGHARTFNYQAGDVGYVPFAMGHYVENIGDEPLVFLEIFKDDHYADVSLNQWLAMLPETFVQAHLDLGKDFTDVLSKEKHPVVKKKCSK
In the case of B6, the Km ([1]; 0.73 Mn/monomer) is reported as 10.1 ± 0.6 mM, the kcat ([1]; 0.73 Mn/monomer) is reported as 0.62 ± 0.01 s⁻¹ and the kcat/Km ([1]; 0.73 Mn/monomer) is reported as 61 M⁻¹ s⁻¹.

B7: OxDC (oxalate decarboxylase) (Bacillus subtilis subsp. subtilis str. 168; E280A) (protein)
chain: MKKQNDIPQPIRGDKGATVKIPRNIERDRQNPDMLVPPETDHGTVSNMKFSFSDTHNRLEKGGYAREVTVRELPISENLASVNMRLKPGAIRELHWHKEAEWAYMIYGSARVTIVDEKGRSFIDDVGEGDLWYFPSGLPHSIQALEEGAEFLLVFDDGSFSENSTFQLTDWLAHTPKEVIAANFGVTKEEISNLPGKEKYIFENQLPGSLKDDIVEGPNGEVPYPFTYRLLEQEPIESEGGKVYIADSTNFKVSKTIASALVTVEPGAMRELHWHPNTHAWQYYISGKARMTVFASDGHARTFNYQAGDVGYVPFAMGHYVENIGDEPLVFLEIFKDDHYADVSLNQWLAMLPETFVQAHLDLGKDFTDVLSKEKHPVVKKKCSK
Protein B7 has a Km ([1]; 0.67 Mn/monomer) of 3.0 ± 0.2 mM, a kcat ([1]; 0.67 Mn/monomer) of 0.019 ± 0.001 s⁻¹ and a kcat/Km ([1]; 0.67 Mn/monomer) of 6 M⁻¹ s⁻¹.

B8: OxDC (oxalate decarboxylase) (Bacillus subtilis subsp. subtilis str. 168; E101A) (protein)
chain: MKKQNDIPQPIRGDKGATVKIPRNIERDRQNPDMLVPPETDHGTVSNMKFSFSDTHNRLEKGGYAREVTVRELPISENLASVNMRLKPGAIRELHWHKEAAWAYMIYGSARVTIVDEKGRSFIDDVGEGDLWYFPSGLPHSIQALEEGAEFLLVFDDGSFSENSTFQLTDWLAHTPKEVIAANFGVTKEEISNLPGKEKYIFENQLPGSLKDDIVEGPNGEVPYPFTYRLLEQEPIESEGGKVYIADSTNFKVSKTIASALVTVEPGAMRELHWHPNTHEWQYYISGKARMTVFASDGHARTFNYQAGDVGYVPFAMGHYVENIGDEPLVFLEIFKDDHYADVSLNQWLAMLPETFVQAHLDLGKDFTDVLSKEKHPVVKKKCSK
Work on B8 yielded a Km ([1]; 0.18 Mn/monomer) of 2.9 ± 0.3 mM, a kcat ([1]; 0.18 Mn/monomer) of 0.046 ± 0.002 s⁻¹ and a kcat/Km ([1]; 0.18 Mn/monomer) of 16 M⁻¹ s⁻¹.
